Earlier results as cited in publication PMC4871753.

Biological target: RXFP1 (Homo sapiens) (UniProt Q9HBX9)
UniProt Q9HBX9, sequence (Q9HBX9 whole entry): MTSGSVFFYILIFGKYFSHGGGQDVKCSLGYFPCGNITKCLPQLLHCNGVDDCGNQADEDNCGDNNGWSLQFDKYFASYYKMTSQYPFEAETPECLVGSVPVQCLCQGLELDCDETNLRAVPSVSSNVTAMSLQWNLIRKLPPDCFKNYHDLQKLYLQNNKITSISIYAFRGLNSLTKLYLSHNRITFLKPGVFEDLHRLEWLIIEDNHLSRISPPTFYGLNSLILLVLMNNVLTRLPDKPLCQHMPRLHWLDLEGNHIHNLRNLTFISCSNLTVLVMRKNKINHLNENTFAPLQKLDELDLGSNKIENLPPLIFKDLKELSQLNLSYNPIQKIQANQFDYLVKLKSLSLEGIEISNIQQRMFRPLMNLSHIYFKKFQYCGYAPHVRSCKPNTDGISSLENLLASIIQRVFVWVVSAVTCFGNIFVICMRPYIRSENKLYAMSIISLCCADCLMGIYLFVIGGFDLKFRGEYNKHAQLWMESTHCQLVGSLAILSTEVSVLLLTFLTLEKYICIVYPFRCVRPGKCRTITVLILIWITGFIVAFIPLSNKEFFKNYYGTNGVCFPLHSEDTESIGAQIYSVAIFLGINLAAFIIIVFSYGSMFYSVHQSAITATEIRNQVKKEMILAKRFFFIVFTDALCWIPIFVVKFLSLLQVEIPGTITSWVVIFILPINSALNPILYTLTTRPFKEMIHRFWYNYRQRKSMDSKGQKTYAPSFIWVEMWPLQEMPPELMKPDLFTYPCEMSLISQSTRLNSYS

Question: Which Kd does the source give for “NLuc-conjugated relaxin (from UniProt P04090)” here?
Answer: Its Kd is 1.11 nM.
